The values that follow are results of earlier work, collected in article PMC11076503.

The series has as its target Mpro (Severe acute respiratory syndrome coronavirus 2) (UniProt P0DTD1).

As usually defined, the Kd is the constant that tells how readily two partners part at equilibrium. For the substance Mpro (from UniProt P0DTD1), the Kd is 7 µM.
